What was measured:
Assay in all cases: IP/MS, LZTR1 R810W-FLAG, U87
KIAA1468 = target: T1, KIAA1468 (human, UniProt Q9P260 2-1216, limits assumed)
T1 sequence (looked up): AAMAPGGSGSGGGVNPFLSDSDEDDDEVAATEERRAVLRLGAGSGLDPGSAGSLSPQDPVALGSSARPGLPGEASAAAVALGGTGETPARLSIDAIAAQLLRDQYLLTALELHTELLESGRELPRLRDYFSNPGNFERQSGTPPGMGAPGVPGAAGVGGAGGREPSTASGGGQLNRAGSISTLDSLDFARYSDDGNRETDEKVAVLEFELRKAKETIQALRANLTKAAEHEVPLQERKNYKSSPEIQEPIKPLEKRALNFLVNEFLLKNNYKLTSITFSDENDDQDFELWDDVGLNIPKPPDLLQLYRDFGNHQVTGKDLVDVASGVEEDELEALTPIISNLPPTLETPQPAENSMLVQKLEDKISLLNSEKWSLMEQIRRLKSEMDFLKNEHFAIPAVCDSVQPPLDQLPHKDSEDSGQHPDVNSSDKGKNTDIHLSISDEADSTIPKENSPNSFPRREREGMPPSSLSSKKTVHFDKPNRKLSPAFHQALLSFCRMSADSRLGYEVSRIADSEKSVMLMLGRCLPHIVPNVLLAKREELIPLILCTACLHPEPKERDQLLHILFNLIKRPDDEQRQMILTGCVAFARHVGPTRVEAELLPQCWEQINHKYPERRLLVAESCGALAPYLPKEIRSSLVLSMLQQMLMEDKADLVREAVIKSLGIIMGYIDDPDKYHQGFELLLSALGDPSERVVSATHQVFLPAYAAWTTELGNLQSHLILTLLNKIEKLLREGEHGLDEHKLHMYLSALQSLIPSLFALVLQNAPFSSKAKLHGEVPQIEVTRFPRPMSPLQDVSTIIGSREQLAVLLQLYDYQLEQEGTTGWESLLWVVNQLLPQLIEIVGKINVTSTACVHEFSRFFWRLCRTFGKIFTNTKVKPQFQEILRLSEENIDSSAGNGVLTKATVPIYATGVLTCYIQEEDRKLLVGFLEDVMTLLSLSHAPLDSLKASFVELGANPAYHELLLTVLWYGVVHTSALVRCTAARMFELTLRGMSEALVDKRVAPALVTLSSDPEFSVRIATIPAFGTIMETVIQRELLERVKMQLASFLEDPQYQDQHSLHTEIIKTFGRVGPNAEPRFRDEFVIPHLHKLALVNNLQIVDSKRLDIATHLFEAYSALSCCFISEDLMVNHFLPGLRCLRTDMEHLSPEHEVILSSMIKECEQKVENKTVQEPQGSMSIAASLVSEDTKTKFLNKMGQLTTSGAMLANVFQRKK
Summary of the method: (§1)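 Extracted peptides in 3% acetonitrile/0.1% formic acid ran on a 50 cm C18 column into an Orbitrap Fusion, with MaxQuant identification and spectral counting.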

DPP9 = DPP9 (human, UniProt Q86TI2 2-863, limits assumed)
Chain of DPP9 (Q86TI2 2-863 limits assumed): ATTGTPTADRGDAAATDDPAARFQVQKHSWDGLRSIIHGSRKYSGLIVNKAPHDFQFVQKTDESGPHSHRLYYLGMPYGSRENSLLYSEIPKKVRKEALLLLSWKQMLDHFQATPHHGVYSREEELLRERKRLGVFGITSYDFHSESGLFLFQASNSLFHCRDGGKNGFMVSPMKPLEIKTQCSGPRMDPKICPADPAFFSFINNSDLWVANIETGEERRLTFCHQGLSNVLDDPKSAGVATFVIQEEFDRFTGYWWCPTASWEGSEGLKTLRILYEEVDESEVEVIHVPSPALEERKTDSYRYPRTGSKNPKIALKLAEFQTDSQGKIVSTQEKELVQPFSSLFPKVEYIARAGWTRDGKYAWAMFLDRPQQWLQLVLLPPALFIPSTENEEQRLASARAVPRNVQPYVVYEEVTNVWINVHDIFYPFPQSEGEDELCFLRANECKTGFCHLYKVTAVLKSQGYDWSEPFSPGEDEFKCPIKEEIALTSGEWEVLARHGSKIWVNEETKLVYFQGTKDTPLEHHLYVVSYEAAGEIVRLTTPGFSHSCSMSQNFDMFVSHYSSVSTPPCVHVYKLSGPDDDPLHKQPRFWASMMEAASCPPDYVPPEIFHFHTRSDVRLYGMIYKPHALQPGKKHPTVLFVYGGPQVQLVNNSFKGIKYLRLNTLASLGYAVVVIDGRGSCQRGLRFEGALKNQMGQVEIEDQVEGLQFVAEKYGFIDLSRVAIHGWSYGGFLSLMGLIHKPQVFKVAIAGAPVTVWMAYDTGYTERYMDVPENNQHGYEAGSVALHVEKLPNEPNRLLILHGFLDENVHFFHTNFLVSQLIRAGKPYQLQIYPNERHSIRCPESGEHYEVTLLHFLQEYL
Summary of the method: as §1

RANBP6 = target: T2, RANBP6 (human, UniProt O60518 2-1105)
T2 sequence (looked up): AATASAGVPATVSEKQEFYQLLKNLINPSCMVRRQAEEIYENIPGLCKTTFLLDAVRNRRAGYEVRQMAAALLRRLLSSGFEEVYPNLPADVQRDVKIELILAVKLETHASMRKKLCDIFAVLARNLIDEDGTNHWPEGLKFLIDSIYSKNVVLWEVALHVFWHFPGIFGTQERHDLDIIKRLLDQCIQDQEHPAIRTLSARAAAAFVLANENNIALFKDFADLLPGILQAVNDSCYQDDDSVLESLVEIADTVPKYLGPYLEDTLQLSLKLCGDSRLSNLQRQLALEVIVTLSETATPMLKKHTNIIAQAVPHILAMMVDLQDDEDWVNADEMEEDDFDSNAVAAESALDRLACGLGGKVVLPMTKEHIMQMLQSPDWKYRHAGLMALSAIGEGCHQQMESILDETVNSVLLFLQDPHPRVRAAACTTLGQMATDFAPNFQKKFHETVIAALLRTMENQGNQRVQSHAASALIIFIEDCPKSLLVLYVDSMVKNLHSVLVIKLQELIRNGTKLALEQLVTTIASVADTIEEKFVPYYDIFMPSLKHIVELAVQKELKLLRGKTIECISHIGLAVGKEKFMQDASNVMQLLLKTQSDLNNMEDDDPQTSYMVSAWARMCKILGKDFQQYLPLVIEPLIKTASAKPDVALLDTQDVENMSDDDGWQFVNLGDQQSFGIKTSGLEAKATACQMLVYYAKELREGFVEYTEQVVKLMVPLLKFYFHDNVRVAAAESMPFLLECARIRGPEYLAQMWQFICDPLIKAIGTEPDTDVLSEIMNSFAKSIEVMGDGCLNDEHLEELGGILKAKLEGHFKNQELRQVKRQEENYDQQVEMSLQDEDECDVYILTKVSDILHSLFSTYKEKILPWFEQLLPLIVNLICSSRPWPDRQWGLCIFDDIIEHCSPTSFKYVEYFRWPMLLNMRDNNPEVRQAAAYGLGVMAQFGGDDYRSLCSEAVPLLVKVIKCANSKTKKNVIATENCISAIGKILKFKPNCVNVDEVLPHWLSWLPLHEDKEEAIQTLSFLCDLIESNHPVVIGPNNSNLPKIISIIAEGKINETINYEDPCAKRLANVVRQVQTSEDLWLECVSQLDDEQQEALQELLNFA
Summary of the method: as §1

Measured: binding result

B1: LZTR1 R810W-FLAG (other, human, UniProt Q8N653 1-840, looked up)
chain: MAGPGSTGGQIGAAALAGGARSKVAPSVDFDHSCSDSVEYLTLNFGPFETVHRWRRLPPCDEFVGARRSKHTVVAYKDAIYVFGGDNGKTMLNDLLRFDVKDCSWCRAFTTGTPPAPRYHHSAVVYGSSMFVFGGYTGDIYSNSNLKNKNDLFEYKFATGQWTEWKIEGRLPVARSAHGATVYSDKLWIFAGYDGNARLNDMWTIGLQDRELTCWEEVAQSGEIPPSCCNFPVAVCRDKMFVFSGQSGAKITNNLFQFEFKDKTWTRIPTEHLLRGSPPPPQRRYGHTMVAFDRHLYVFGGAADNTLPNELHCYDVDFQTWEVVQPSSDSEVGGAEVPERACASEEVPTLTYEERVGFKKSRDVFGLDFGTTSAKQPTQPASELPSGRLFHAAAVISDAMYIFGGTVDNNIRSGEMYRFQFSCYPKCTLHEDYGRLWESRQFCDVEFVLGEKEECVQGHVAIVTARSRWLRRKITQARERLAQKLEQEAAPVPREAPGVAAGGARPPLLHVAIREAEARPFEVLMQFLYTDKIKYPRKGHVEDVLLIMDVYKLALSFQLCRLEQLCRQYIEASVDLQNVLVVCESAARLQLSQLKEHCLNFVVKESHFNQVIMMKEFERLSSPLIVEIVRRKQQPPPRTPLDQPVDIGTSLIQDMKAYLEGAGAEFCDITLLLDGHPRPAHKAILAARSSYFEAMFRSFMPEDGQVNISIGEMVPSRQAFESMLRYIYYGEVNMPPEDSLYLFAAPYYYGFYNNRLQAYCKQNLEMNVTVQNVLQILEAADKTQALDMKRHCLHIIVHQFTKVSKLPTLWSLSQQLLLDIIDSLASHISDKQCAELGADI
notes: Stably expressed in U87 cells by lentivirus; also called LZTR1-FLAG-R810W; LZTR1 RW; not shown: FLAG tag
binds: all assays above
